Reference: patent US20240384250A1, “FIBROBLAST GROWTH FACTOR 23 MODULATING COMPOUNDS” (THE UAB RESEARCH FOUNDATION, priority 2021, published 2024)
Entries after “also recorded” stand apart in the source; their conditions may differ.

T1: FGF23 binding to FGFR4 (Homo sapiens, UniProt P22455+Q9GZV9)
T1 construct: Fc-coupled FGFR ectodomains were immobilized on protein A/G beads; purchased R&D Systems 2604FG025/CF or 2629FG025/CF; 685FR050
T1 sequence (Q9GZV9 25-251): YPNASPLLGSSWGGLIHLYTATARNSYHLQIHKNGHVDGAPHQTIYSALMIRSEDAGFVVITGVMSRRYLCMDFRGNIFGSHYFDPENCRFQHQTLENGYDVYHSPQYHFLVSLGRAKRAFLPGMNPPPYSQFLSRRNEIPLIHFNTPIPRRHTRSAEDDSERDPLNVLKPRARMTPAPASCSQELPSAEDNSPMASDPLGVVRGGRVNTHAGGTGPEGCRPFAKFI
T1 sequence (P22455 22-369 limits assumed): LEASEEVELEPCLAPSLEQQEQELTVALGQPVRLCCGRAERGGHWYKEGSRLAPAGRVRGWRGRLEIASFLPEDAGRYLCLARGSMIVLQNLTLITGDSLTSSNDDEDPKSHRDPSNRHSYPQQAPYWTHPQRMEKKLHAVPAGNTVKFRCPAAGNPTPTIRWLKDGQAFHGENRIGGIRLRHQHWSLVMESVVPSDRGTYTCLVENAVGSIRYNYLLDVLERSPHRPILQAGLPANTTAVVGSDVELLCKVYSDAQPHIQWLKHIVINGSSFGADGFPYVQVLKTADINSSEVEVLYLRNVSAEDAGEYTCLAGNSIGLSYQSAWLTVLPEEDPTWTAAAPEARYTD


Legend:
[1] = test system: neonatal rat ventricular myocytes; assay: Hypertrophic growth of isolated neonatal rat ventricular myocytes (cell area); assay type: cell-based
Description: Neonatal rat ventricular myocytes (NRVMs) were isolated using a kit according to the manufacturer's protocol (LK003300, Worthington Biochemical Corporation), as done previously.^13,16,17 Briefly, hearts from 1- to 3-day-old Sprague Dawley rats (Envigo) were harvested and minced in calcium- and magnesium-free Hanks balanced salt solution and the tissue was digested with 50 μg/ml of trypsin at 4° C. for 20 to 24 hours. Soybean trypsin inhibitor in Hanks balanced salt solution was added, and the tissue was further digested with collagenase (in Leibovitz L-15 medium) under slow rotation (0.14 g) at 37° C. for 45 minutes. Cells were broken up by triturating the suspension 20× with a standard 10-ml plastic serological pipette. Cells were then filtered through a cell strainer (70 μm, BD Falcon). Cells were incubated at room temperature for 20 minutes and spun at 100 g for 5 minutes. The cell pellet was resuspended in plating medium (DMEM Base [10013CV, Corning], 17% M199 [12350039, Gibco], 15% FBS [26140079, Gibco], I× Pen/Strep [15140122, Gibco]). For cell tracings, NRVMs were grown in 24-well plates on glass coverslips (CLS1760012, Chemglass). Slips were precoated with laminin (23017015, Invitrogen) at 10 μg/ml for 1 hour at 37° C. dissolved in PBS. Laminin was aspirated, and cells and medium were added. Cells were counted by a hemocytometer and plated at 4×10^5 cells per well. […] After 48 hours, maintenance medium was replaced, and after another 48 hours, cells were ready for treatment, giving a total of 72 hours of plating medium and 96 hours of maintenance medium before treatment. […]
The medium was aspirated, and cultured NRVMs were fixed in 2% paraformaldehyde (P-6148, Sigma-Aldrich) and 4% sucrose dissolved in PBS for 5 minutes followed by permeabilization with 1% Triton X-100 dissolved in PBS for 10 minutes. […] The cross-sectional area of myocytes was measured on the basis of α-actinin-positive staining using ImageJ software (v1.53, National Institutes of Health). […]

FGF23 binding to FGFR4 = target: T1, FGF23 binding to FGFR4; assay: Plate-based binding, FGF23 coated, then sKL, heparin or PBS, then Fc-FGFR; details: with sKL, with heparin 0.4 USP, or alone
Description: Proteins were coated on 96-well plates (MaxiSorp; 439454, Thermo Fisher Scientific), and proteins were added to wells in 100 μl of enzyme-linked immunosorbent assay (ELISA) coating buffer (E107, Bethyl Laboratories) with a lid placed overtop and incubated at 4° C. overnight. Plates were washed 5× with 350 μl of assay buffer (50 mM Tris [pH 7.4], 200 mM NaCl, 0.01% Tween 20) on a 50 TS microplate washer (BioTek). Plates were blocked for 1 hour in 200 μl of assay buffer with 0.5% BSA. Plates were washed as before, and proteins were incubated on plates in 100 μl of assay buffer with 0.5% BSA. Proteins or heparin was incubated in orders described in the respective figure legends. Assays using FLAG-tag-based detection were incubated with anti-FLAG coupled to HRP at 1:20,000, and assays using Fc detection were incubated with anti-human Fc coupled to HRP at 1:10,000. Plates were washed as above, and 100 μl of 3,3′,5,5′-tetramethylbenzidine (TMB) substrate (E102, Bethyl Laboratories) was added for 15 to 20 minutes until positive wells developed a dark blue color. Reactions were stopped with ELISA stop solution (E115, Bethyl Laboratories) and analyzed using the Synergy HI plate reader (BioTek) at 450 nm wavelength. […] As a control to remove background absorbance values, wells were coated with an equal amount of BSA to match the amount of protein coated in experimental wells and treated the same as experimental wells. To study the effects of sKL on the binding between paracrine FGFs and FGFRs, plates were run as above except coated with paracrine FGFs. Fc-FGFR1 was preincubated with sKL or vehicle for 60 minutes, and then the combination was added to wells and the assay was run as before.

| Molecule | FGF23-induced hypertrophy (increase in cell area) ([1]; cotreatment with FGF23 25 ng/ml, 48 hours, sKL 100 ng/ml, anti-FGF23 1 μg/ml) | NRVM area, treatment by itself ([1]; without FGF23, 48 hours) | binding of coated FGF23 to Fc-FGFR4 (FGF23 binding to FGFR4) | cell area ([1]; FGF23 alone, 48 hours) |
| --- | --- | --- | --- | --- |
| sKL: recombinant soluble α-klotho ectodomain, mouse aa 35-982 and human aa 34-981, FLAG- or Strep/His-tagged, purified from HEK293 cells (protein, left off: small tags and cut ends, recombinant soluble α-klotho ectodomain, mouse aa 35-982 and human aa 34-981, FLAG- or Strep/His-tagged, purified from HEK293 cells) EPGDGAQTWARFSRPPAPEAAGLFQGTFPDGFLWAVGSAAYQTEGGWQQHGKGASIWDTFTHHPLAPPGDSRNASLPLGAPSPLQPATGDVASDSYNNVFRDTEALRELGVTHYRFSISWARVLPNGSAGVPNREGLRYYRRLLERLRELGVQPVVTLYHWDLPQRLQDAYGGWANRALADHFRDYAELCFRHFGGQVKYWITIDNPYVVAWHGYATGRLAPGIRGSPRLGYLVAHNLLLAHAKVWHLYNTSFRPTQGGQVSIALSSHWINPRRMTDHSIKECQKSLDFVLGWFAKPVFIDGDYPESMKNNLSSILPDFTESEKKFIKGTADFFALCFGPTLSFQLLDPHMKFRQLESPNLRQLLSWIDLEFNHPQIFIVENGWFVSGTTKRDDAKYMYYLKKFIMETLKAIKLDGVDVIGYTAWSLMDGFEWHRGYSIRRGLFYVDFLSQDKMLLPKSSALFYQKLIEKNGFPPLPENQPLEGTFPCDFAWGVVDNYIQVDTTLSQFTDLNVYLWDVHHSKRLIKVDGVVTKKRKSYCVDFAAIQPQIALLQEMHVTHFRFSLDWALILPLGNQSQVNHTILQYYRCMASELVRVNITPVVALWQPMAPNQGLPRLLARQGAWENPYTALAFAEYARLCFQELGHHVKLWITMNEPYTRNMTYSAGHNLLKAHALAWHVYNEKFRHAQNGKISIALQADWIEPACPFSQKDKEVAERVLEFDIGWLAEPIFGSGDYPWVMRDWLNQRNNFLLPYFTEDEKKLIQGTFDFLALSHYTTILVDSEKEDPIKYNDYLEVQEMTDITWLNSPSQVAVVPWGLRKVLNWLKFKYGDLPMYIISNGIDDGLHAEDDQLRVYYMQNYINEALKAHILDGINLCGYFAYSFNDRTAPRFGLYRYAADQFEPKASMKHYRKIIDSNGFPGPETLERFCPEEFTVCTECSFFHTRKS | FGF23 did not induce hypertrophy; also recorded: blocked this effect | no effect | highest FGF23-sKL affinities; also recorded: increased; also recorded: the strongest | – |
| FGF23: recombinant fibroblast growth factor 23 protein from R&D Systems (protein) YPDTSPLLGSNWGSLTHLYTATARTSYHLQIHRDGHVDGTPHQTIYSALMITSEDAGSVVITGAMTRRFLCMDLHGNIFGSLHFSPENCKFRQWTLENGYDVYLSQKHHYLVSLGRAKRIFQPGTNPPPFSQFLARRNEVPLLHFYTVRPRRHTRSAEDPPERDPLNVLKPRPRATPVPVSCSRELPSAEEGGPAASDPLGVLRRGRGDARGGAGGADRCRPFPRFV | – | – | low affinity; also recorded: weak affinity | induced hypertrophic growth; also recorded: increase in cell area; also recorded: stepwise elevation in the cell area |
